Laboratory results from patent US11198713B2, “Agents modulating beta-catenin functions and methods thereof” (FOG PHARMACEUTICALS, INC., priority 2017, dated 2021).
Numbered stars: 1 amine (or outer) side, 2 acyl side, 3 side chain; on linkers, the order of the positions; unused ones are H or OH. Bridge positions count the residues as written; N and C are the ends. Square brackets hold non-standard residues; d marks the D form. Primed or numbered codes have the meaning given here. R7 = (R)-2-(6-heptenyl)alanine, C=CCCCCC[C@@](C)(N[*:1])C(=O)[*:2]; R6 = (R)-2-(5-hexenyl)alanine, C=CCCCC[C@@](C)(N[*:1])C(=O)[*:2]; S6 = (S)-2-(5-hexenyl)alanine, C=CCCCC[C@](C)(N[*:1])C(=O)[*:2]; MG = Monomer G = RdN, acyclic alkyl-N(Alloc) stapling residue; MC = Monomer C = PyrR, Alloc-pyrrolidine stapling residue; S7 = C[C@@](CCCCCC=[*:3])(N[*:1])C(=O)[*:2]; R5 = C=CCCC[C@@](C)(N)C(=O)O; MB(7) = not defined here

T1: full-length beta-catenin (UniProt P35222 2-781, limits assumed)
T1 construct: mature; also called full-length ß-Catenin; β-catenin
T1 sequence (looked up): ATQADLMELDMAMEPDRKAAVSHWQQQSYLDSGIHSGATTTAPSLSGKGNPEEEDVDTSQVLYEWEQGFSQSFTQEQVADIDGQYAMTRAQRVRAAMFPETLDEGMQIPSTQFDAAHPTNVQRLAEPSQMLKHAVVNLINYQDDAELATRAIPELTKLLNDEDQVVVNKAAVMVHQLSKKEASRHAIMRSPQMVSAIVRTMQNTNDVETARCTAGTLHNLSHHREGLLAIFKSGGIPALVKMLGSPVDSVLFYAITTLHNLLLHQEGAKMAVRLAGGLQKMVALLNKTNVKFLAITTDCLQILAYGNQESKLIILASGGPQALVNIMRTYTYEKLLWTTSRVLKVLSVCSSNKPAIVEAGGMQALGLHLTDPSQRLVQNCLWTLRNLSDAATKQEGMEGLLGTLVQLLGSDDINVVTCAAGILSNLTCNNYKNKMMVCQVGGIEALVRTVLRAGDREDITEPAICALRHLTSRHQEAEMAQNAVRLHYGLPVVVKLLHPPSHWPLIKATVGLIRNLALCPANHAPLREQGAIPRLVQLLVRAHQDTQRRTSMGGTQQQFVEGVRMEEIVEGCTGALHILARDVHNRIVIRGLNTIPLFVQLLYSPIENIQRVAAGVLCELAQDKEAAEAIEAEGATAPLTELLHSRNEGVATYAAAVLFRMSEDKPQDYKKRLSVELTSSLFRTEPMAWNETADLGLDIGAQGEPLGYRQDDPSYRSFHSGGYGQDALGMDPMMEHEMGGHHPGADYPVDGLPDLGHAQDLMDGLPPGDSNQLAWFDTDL

T2: biotinylated beta-catenin (Homo sapiens, UniProt P35222)
T2 sequence (P35222 1-781): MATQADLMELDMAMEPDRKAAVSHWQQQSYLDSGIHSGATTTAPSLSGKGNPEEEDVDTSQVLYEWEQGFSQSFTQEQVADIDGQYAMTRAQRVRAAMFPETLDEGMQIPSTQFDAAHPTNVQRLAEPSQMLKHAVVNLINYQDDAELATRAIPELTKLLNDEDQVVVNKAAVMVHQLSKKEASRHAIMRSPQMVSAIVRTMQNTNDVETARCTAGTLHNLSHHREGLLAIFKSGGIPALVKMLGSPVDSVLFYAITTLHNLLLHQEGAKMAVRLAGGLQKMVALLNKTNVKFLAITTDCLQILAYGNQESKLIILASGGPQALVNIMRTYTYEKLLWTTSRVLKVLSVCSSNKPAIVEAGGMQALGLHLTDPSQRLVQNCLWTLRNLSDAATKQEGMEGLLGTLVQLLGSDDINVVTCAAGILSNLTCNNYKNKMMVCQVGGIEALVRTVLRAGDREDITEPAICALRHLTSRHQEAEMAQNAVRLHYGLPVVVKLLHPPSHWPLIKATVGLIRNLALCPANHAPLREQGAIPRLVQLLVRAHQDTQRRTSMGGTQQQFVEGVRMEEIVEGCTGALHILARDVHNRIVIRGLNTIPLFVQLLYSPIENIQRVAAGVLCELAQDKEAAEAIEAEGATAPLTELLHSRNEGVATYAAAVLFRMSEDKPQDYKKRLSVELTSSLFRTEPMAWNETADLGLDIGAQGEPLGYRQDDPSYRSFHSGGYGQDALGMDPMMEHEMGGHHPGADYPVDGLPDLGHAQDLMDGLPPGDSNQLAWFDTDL

T3: full-length beta-catenin (Axin site) (Homo sapiens, UniProt P35222)
T3 construct: 15 nM full-length beta-catenin, 20 nM FITC labeled peptide in buffer
T3 sequence (P35222 1-781): T2 sequence (P35222 1-781)

B1: FP0745c (peptide)
peptide: Ac-PQ[MC]ILD[R6]HVRRVWR-NH2
modifications: staple 3-7
B2: FP0761c (peptide)
peptide: Ac-PQ[S6]ILD[MB(7)]HVRRVWR-NH2
modifications: staple 3-7; reading uncertain
B3: FP0763c (peptide)
peptide: Ac-PQ[S7]ILD[MB(7)]HVRRVWR-NH2
modifications: staple 3-7; reading uncertain
notes: also called S7/PS
B4: FP0767c (peptide)
peptide: Ac-PQ[R6]ILD[MC]HVRRVWR-NH2
modifications: staple 3-7; also: carbamate staple (-N(R')-C(O)-O-) by ring-closing olefin metathesis
notes: also called R6/PR
B5: FP0768c (peptide)
peptide: Ac-PQ[R7]ILD[MC]HVRRVWR-NH2
modifications: staple 3-7; also: carbamate staple (-N(R')-C(O)-O-) by ring-closing olefin metathesis
notes: also called R7/PR
B6: FP0782c (peptide)
peptide: Ac-PQ[MG]ILD[R5]HVRRVWR-NH2
modifications: staple 3-7; also: carbamate staple (-N(R')-C(O)-O-) by ring-closing olefin metathesis
B7: FP0766c (peptide)
peptide: Ac-PQ[R5]ILD[MC]HVRRVWR-NH2
modifications: staple 3-7
notes: also called R5/PR

target: T1, full-length beta-catenin; experiment: competition FP, grade of FP EC50 (++: 100-500 nM); conditions: not given
Method: (§1) In some embodiments, a competition fluorescence polarization assay is used to assess binding of provided compounds to beta-catenin. In an exemplary procedure, solutions of provided compounds, e.g., provided stapled peptides, were prepared in a buffer (e.g., 50 mM Tris pH 8.0, 250 mM NaCl, 2% glycerol, 0.5 mM EDTA, 0.02% w/v sodium azide) using a 3-fold serial dilution from 5 µM. Probe solution (15 nM full-length ß-Catenin, 20 nM FITC labeled peptide in buffer) was prepared and incubated for a period of time, e.g., 5 minutes, and the a volume, e.g., 40 µL per well plated in suitable plate, e.g., a black polystyrene 384-well plate (Corning). Equal volume of the serial diluted peptide was added to the plate and incubated protected from light for 15 minutes prior to read. Reads were performed on a Spectramax M5 (Molecular Devices) in duplicate. Suitable probe was FITC-PEG1-PQ-S5-ILD-S5-HVRRVWR (SEQ ID NO: 1) (hydrocarbon staple formed by two S5 via olefin metathesis) and/or FITC-bA-PQ-S5-ILD-S5-HVRRVWR (SEQ ID NO: 3) (hydrocarbon staple formed by two S5 via olefin metathesis). […] Another peptide, FPO217c (Ac-AR_8ILDAHIM$B5$RVW (SEQ ID NO: 280), with N-terminal proline removed and valine replaced with isoleucine compared to FP0025c) was prepared.

Molecule	FP EC50 [nM]
B1	100 to 500
B2	100 to 500
B3	100 to 500
B4	100 to 500
B5	100 to 500
B6	100 to 500

target: T1, full-length beta-catenin; experiment: competition FP, grade of FP EC50 (+++: <=100 nM); conditions: not given
Method: as §1

Molecule	FP EC50 [nM]
B7	≤ 100

target: T1, full-length beta-catenin; experiment: competition FP; conditions: not given
Method: as §1

Molecule	EC50 [nM]
B1	110
B2	460
B3	115
B7	20
B4	110
B5	150
B6	380

target: T2, biotinylated beta-catenin; experiment: Surface Plasmon Resonance (Biacore); format: binding; conditions: Biacore, biotinylated beta-catenin; read-out: Kd
Method: Additionally or alternatively, binding to beta-catenin may be measured by Surface Plasmon Resonance. In an exemplary assay, approximately 6 nmol dried peptide diluted in buffer (50 mM Tris pH 8.0, 300 mM NaCl, 2% glycerol, 0.5 mM TCEP, 0.5 mM EDTA, 0.005% Tween-20, 1 mg/mL CM Dextran, 0.02% w/v sodium azide) was assayed on a Biacore X100 using the Biacore Biotin CAPture Kit (GE Healthcare) and biotinylated beta-catenin. Results were analyzed using the Biacore X100 Evaluation Software. […] FPO217c (Isomer 2) bound to the armadillo domain of β-catenin with a Kd of 2 nM.

Molecule	Kd [nM]
CC[C@H](C)[C@@H]1NC(=O)C2(NC(=O)[C@H](CCC(N)=O)NC(=O)[C@@H]3CCCN3C(C)=O)CN(C2)C(=O)OCC=CCCCC[C@](C)(C(=O)N[C@@H](Cc2c[nH]cn2)C(=O)N[C@H](C(=O)N[C@@H](CCCNC(=N)N)C(=O)N[C@@H](CCCNC(=N)N)C(=O)N[C@H](C(=O)N[C@@H](Cc2c[nH]c3ccccc23)C(=O)N[C@@H](CCCNC(=N)N)C(N)=O)C(C)C)C(C)C)NC(=O)[C@H](CC(=O)O)NC(=O)[C@H](CC(C)C)NC1=O (single isomer, unassigned) [FP-0725c, Ac-P-Q-Az-I-L-D-R6-H-V-R-R-V-W-R-NH2]	~22
CC[C@H](C)[C@@H]1NC(=O)[C@@]2(NC(=O)[C@H](CCC(N)=O)NC(=O)[C@@H]3CCCN3C(C)=O)CCN(CC=CCCCC[C@](C)(C(=O)N[C@@H](Cc3c[nH]cn3)C(=O)N[C@H](C(=O)N[C@@H](CCCNC(=N)N)C(=O)N[C@@H](CCCNC(=N)N)C(=O)N[C@H](C(=O)N[C@@H](Cc3c[nH]c4ccccc34)C(=O)N[C@@H](CCCNC(=N)N)C(N)=O)C(C)C)C(C)C)NC(=O)[C@H](CC(=O)O)NC(=O)[C@H](CC(C)C)NC1=O)C2 (single isomer, unassigned) [FP-0745a]	~34
CC[C@H](C)[C@@H]1NC(=O)[C@](C)(NC(=O)[C@H](CCC(N)=O)NC(=O)[C@@H]2CCCN2C(C)=O)CCC=CCOC(=O)N2CC[C@](C(=O)N[C@@H](Cc3c[nH]cn3)C(=O)N[C@H](C(=O)N[C@@H](CCCNC(=N)N)C(=O)N[C@@H](CCCNC(=N)N)C(=O)N[C@H](C(=O)N[C@@H](Cc3c[nH]c4ccccc34)C(=O)N[C@@H](CCCNC(=N)N)C(N)=O)C(C)C)C(C)C)(C2)NC(=O)[C@H](CC(=O)O)NC(=O)[C@H](CC(C)C)NC1=O (single isomer, unassigned) [FP-0765c, Ac-P-Q-R4-I-L-D-PR-H-V-R-R-V-W-R-NH2]	~13
CC[C@H](C)[C@@H]1NC(=O)[C@](C)(NC(=O)[C@H](CCC(N)=O)NC(=O)[C@@H]2CCCN2C(C)=O)CCCC=CCOC(=O)N2CC[C@](C(=O)N[C@@H](Cc3c[nH]cn3)C(=O)N[C@H](C(=O)N[C@@H](CCCNC(=N)N)C(=O)N[C@@H](CCCNC(=N)N)C(=O)N[C@H](C(=O)N[C@@H](Cc3c[nH]c4ccccc34)C(=O)N[C@@H](CCCNC(=N)N)C(N)=O)C(C)C)C(C)C)(C2)NC(=O)[C@H](CC(=O)O)NC(=O)[C@H](CC(C)C)NC1=O (single isomer, unassigned) [FP-0766c, Ac-P-Q-R5-I-L-D-PR-H-V-R-R-V-W-R-NH2]	~7
CC[C@H](C)[C@@H]1NC(=O)[C@@](C)(NC(=O)[C@H](CCC(N)=O)NC(=O)[C@@H]2CCCN2C(C)=O)CCCC=CCCC[C@@](C)(C(=O)N[C@@H](Cc2c[nH]cn2)C(=O)N[C@H](C(=O)N[C@@H](CCCNC(=N)N)C(=O)N[C@@H](CCCNC(=N)N)C(=O)N[C@H](C(=O)N[C@@H](Cc2c[nH]c3ccccc23)C(=O)N[C@@H](CCCNC(=N)N)C(N)=O)C(C)C)C(C)C)NC(=O)[C@H](CC(=O)O)NC(=O)[C@H](CC(C)C)NC1=O (single isomer, unassigned) [FP-0787c]	~14

same assay, conditions: Table 2; read-out: Kd by SPR

Molecule	Kd [nM]
CC[C@H](C)[C@@H]1NC(=O)C2(NC(=O)[C@H](CCC(N)=O)NC(=O)[C@@H]3CCCN3C(C)=O)CN(C2)C(=O)OCC=CCCCC[C@](C)(C(=O)N[C@@H](Cc2c[nH]cn2)C(=O)N[C@H](C(=O)N[C@@H](CCCNC(=N)N)C(=O)N[C@@H](CCCNC(=N)N)C(=O)N[C@H](C(=O)N[C@@H](Cc2c[nH]c3ccccc23)C(=O)N[C@@H](CCCNC(=N)N)C(N)=O)C(C)C)C(C)C)NC(=O)[C@H](CC(=O)O)NC(=O)[C@H](CC(C)C)NC1=O (single isomer, unassigned) [FP0725c, Ac-P-Q-MA-I-L-D-R6-H-V-R-R-V-W-R-NH2]	22

target: T3, full-length beta-catenin (Axin site); experiment: Competition fluorescence polarization assay (Axin site probe); format: binding; conditions: competition fluorescence polarization, Table 2; read-out: in vitro FP EC50
Outline: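 Competition FP: 15 nM full-length β-catenin pre-incubated 5 min with 20 nM FITC-labelled stapled Axin-site peptide, then titrated peptide added (3-fold series from 5 μM) for 15 min in the dark. Buffer 50 mM Tris pH 8.0, 250 mM NaCl, 2% glycerol, 0.5 mM EDTA; duplicate reads.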

Molecule	EC50 [nM]
CC[C@H](C)[C@@H]1NC(=O)C2(NC(=O)[C@H](CCC(N)=O)NC(=O)[C@@H]3CCCN3C(C)=O)CN(C2)C(=O)OCC=CCCCC[C@](C)(C(=O)N[C@@H](Cc2c[nH]cn2)C(=O)N[C@H](C(=O)N[C@@H](CCCNC(=N)N)C(=O)N[C@@H](CCCNC(=N)N)C(=O)N[C@H](C(=O)N[C@@H](Cc2c[nH]c3ccccc23)C(=O)N[C@@H](CCCNC(=N)N)C(N)=O)C(C)C)C(C)C)NC(=O)[C@H](CC(=O)O)NC(=O)[C@H](CC(C)C)NC1=O (single isomer, unassigned) [FP0725c, Ac-P-Q-MA-I-L-D-R6-H-V-R-R-V-W-R-NH2]	< 100
